B1: Mol11 (other)
chain: GAGKTWAATHADPNDAGQTVTVVKAPKIGTTLKYGQSKTVWVADKVELTDTVEYFNLQPKTKYTLSGNLMGGTSAESLSDTGVKATTEFTTPAAANGAQTVSGTAVVKFTVPREVLERNEKLVAYEYLTIDGNPVASHEDPKDENQTVTSKKP
notes: also called Mol11 domain construct
B2: Mol10 (other)
chain: GAPDKPVPPPHEDPKDPNQTVVSEHNPGITTTLTDAQAAKGTDGKVISLTRDAQLKDVVRVTQTGLIEGAKYHVFSKLVNQANPDQVVSAGMQEFTATGDQLRSVTVKFTVPKETLQELAGSDPSAEFKLVAYEYLALDSDTDIVNKEATSEIEAVGFK
notes: also called Mol10 construct

Tests used:
[1] = molecular target: T1, Mol9 (Mobiluncus mulieris); assay: SDS-PAGE of mixed Mol domains, ester bond ligation
T1 construct: also called Mol9 construct
T1 chain: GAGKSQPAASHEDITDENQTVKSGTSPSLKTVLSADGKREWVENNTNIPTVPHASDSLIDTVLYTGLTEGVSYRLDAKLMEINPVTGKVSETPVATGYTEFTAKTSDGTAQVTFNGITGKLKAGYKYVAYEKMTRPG

[2] = molecular target: T2, Mol8 (Mobiluncus mulieris); assay: SDS-PAGE of mixed Mol domains, ester bond ligation
T2 construct: also called Mol8 construct
T2 chain: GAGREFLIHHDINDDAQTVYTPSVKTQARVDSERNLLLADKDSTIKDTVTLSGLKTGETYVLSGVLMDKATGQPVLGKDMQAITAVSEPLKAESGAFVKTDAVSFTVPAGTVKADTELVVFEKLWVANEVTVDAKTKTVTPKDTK

Row | Binder | binding result [1] | binding result [2]
1 | B1 | no binding (tested: equimolar amounts, 24 h) | no binding (tested: equimolar amounts, 24 h)
2 | B2 |  | no binding (tested: equimolar amounts, 24 h)

Reference: US20190352343A1 (AUCKLAND UNISERVICES, published 2019)
